Substitutions are numbered along the chain they refer to. Blank lines part the entries; values can stand above or below the molecule they belong to. Where a SMILES comes first, the peptide text is derived from it. Where no end group is shown, it is not given here. The star is where a group is joined. X1 = CC1N=c2c(cc3c(c2S(=O)(=O)O)Oc2c(cc4c(c2S(=O)(=O)O)NC(C)C4(C)C)C=3c2ccc(C(=O)*)cc2)C1(C)C
Assays:
[1] = biological target: T1, human EphB4 ephrin-binding domain, EphB4 (wt), EphB4 (17-196) (Homo sapiens, UniProt P54760); experiment: Isothermal titration calorimetry (ITC), wild-type EphB4; conditions: Table 5, receptor EphB4 (wt)
T1 sequence (P54760 17-196): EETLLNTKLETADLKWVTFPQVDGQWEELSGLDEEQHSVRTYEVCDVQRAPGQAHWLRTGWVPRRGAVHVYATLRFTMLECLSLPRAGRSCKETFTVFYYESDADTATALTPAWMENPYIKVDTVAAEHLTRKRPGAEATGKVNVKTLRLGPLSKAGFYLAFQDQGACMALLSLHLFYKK
Experimental: All mutants and ligands were dialyzed into buffer containing 50 mM Tris-Cl (pH 7.8), 150 mM NaCl, and 1 mM CaCl2 prior to use in isothermal titration calorimetry (ITC) experiments. All experiments were performed with a Microcal MCS ITC at 25° C. […] Data for these titrations were fit assuming a stoichiometry of 1 and at least 60% saturation at the final peptide concentration as described (19,34).
Peptides were dissolved into the same buffer used for the dialysis of EphB4. […] ITC experiments were performed with a Microcal MCS ITC at 25° C. Following an initial injection of 2 μl, titrations were performed by making 20 13 μl injections of peptide into EphB4 in the sample cell to produce an approximate final 2:1 ratio of injectant to sample in the cell. […] Prior to loading the sample cell, EphB4 was centrifuged at 18,000 g for 5 min at 4° C. to remove aggregates and degassed for 5 minutes at room temperature. […] Dilution data were fit to a line and subtracted from the corresponding titration data.

[2] = biological target: Alexa-532-TNYL-RAW peptide; experiment: fluorescence polarization, EphB4 titrated into 75 nM Alexa-532-TNYL-RAW
[3] = biological target: human EphB4 (17-196) K149Q mutant (human); experiment: ITC, 25 °C
[4] = biological target: human EphB4 (17-196) L95R mutant (human); experiment: ITC, 25 °C
[5] = biological target: human EphB4 (17-196) ligand binding domain, wild type (human); experiment: ITC, 25 °C
[6] = biological target: human EphB4 (17-196) K149Q mutant (human); experiment: ITC in phosphate buffer
[7] = biological target: human EphB4 (17-196) K149Q mutant (human); experiment: ITC, 25 °C, 50 mM Tris pH 7.8, 150 mM NaCl, 1 mM CaCl2
[8] = biological target: human EphB4 (17-196) L95R mutant (human); experiment: as above
[9] = biological target: human EphB4 (17-196) ligand binding domain, wild type (human); experiment: as above
EphB4 L95R = biological target: T2, EphB4 L95R (Homo sapiens, UniProt P54760, L95R); experiment: Fluorescence polarization binding of Alexa-532-TNYL-RAW, EphB4 L95R; conditions: EphB4 Leu95Arg mutant
T2 construct: GP64 signal peptide (N, cleaved yes); made in house; host or cells: Hi5 insect cells (baculovirus, secreted)
T2 sequence (P54760 17-196 L95R): T1 sequence (P54760 17-196) with L79R
Experimental: (§1) This Example illustrates fluorescence polarization (FP) assays using a fluorescently-labeled reporter peptide to measure binding of various ligands to the EphB4-LBD.
(§2) All experimental data were analyzed using Prism 4.0 software (GraphPad Software Inc., San Diego, Calif.) and Kd values were generated by fitting the experimental data using a one-site binding hyperbola nonlinear regression model or equation 8.10 (.www.invitrogen.com/downloads/FP8.pdf).
(§3) The construct was sequence verified, and baculovirus was generated with homologous recombination into Sapphire Baculovirus DNA (Orbigen, San Diego, Calif.) following the manufacturer's protocol (10). The wtEphB4 construct was used as a template for generation of site specific mutants.

EphB4 T147F = biological target: T3, EphB4 T147F (Homo sapiens, UniProt P54760, T147F); experiment: Fluorescence polarization binding of Alexa-532-TNYL-RAW, EphB4 T147F; conditions: FP; EphB4 mutant Thr147Phe
T3 construct: GP64 signal peptide (N, cleaved yes); made in house; host or cells: Hi5 insect cells (baculovirus, secreted)
T3 sequence (P54760 17-196 T147F): T1 sequence (P54760 17-196) with T131F
Experimental: as §1, §2, §3

EphB4 K149Q = biological target: T4, EphB4 K149Q (Homo sapiens, UniProt P54760, K149Q); experiment: Fluorescence polarization binding of Alexa-532-TNYL-RAW, EphB4 K149Q; conditions: FP; EphB4 mutant Lys149Gln
T4 construct: GP64 signal peptide (N, cleaved yes); made in house; host or cells: Hi5 insect cells (baculovirus, secreted)
T4 sequence (P54760 17-196 K149Q): T1 sequence (P54760 17-196) with K133Q
Experimental: as §1, §2, §3

EphB4 A186S = biological target: T5, EphB4 A186S (Homo sapiens, UniProt P54760, A186S); experiment: Fluorescence polarization binding of Alexa-532-TNYL-RAW, EphB4 A186S; conditions: FP; EphB4 mutant Ala186Ser
T5 construct: GP64 signal peptide (N, cleaved yes); made in house; host or cells: Hi5 insect cells (baculovirus, secreted)
T5 sequence (P54760 17-196 A186S): T1 sequence (P54760 17-196) with A170S
Experimental: as §1, §2, §3

[10] = biological target: Alexa-532-TNYL-RAW peptide; experiment: fluorescence polarization
[11] = biological target: human EphB4 (17-196) K149Q mutant (human); experiment: ITC
[12] = biological target: human EphB4 (17-196) L95R mutant (human); experiment: ITC
[13] = biological target: human EphB4 (17-196) ligand binding domain, wild type (human); experiment: FP competition, unlabeled TNYL-RAW against Alexa-532-TNYL-RAW on wtEphB4 (FIG. 7)
[14] = biological target: human EphB4 (17-196) K149Q mutant (human); experiment: FP competition, unlabeled TNYL-RAW against Alexa-532-TNYL-RAW on EphB4 K149Q (FIG. 7)
[15] = biological target: human EphB4 (17-196) L95R mutant (human); experiment: ITC, 25 °C, 2 mM TNYL-RAW in the syringe, 15 µM EphB4 (L95R) in the cell; fit assuming stoichiometry of 1

Molecule: LASPNGPIARAW [LFSP-RAW(F to A)]
ΔH [1]: −7.9 ± 0.9 koal mol−1

Molecule: human EphB4 (17-196) R150V mutant (receptor)
Kd [2]: 6.1 nM

Molecule: human ephrinB2 (extracellular domain; residues 25-187) (ligand)
Kd [3]: 20 nM
TΔS [3]: 14.1 kcal/mol
ΔG [3]: -10.5 kcal/mol
ΔH [3]: 3.6 kcal/mol
Kd [4]: 1900 nM
TΔS [4]: 13 kcal/mol
ΔG [4]: -7.8 kcal/mol
ΔH [4]: 5.2 kcal/mol
Kd [5]: 40 nM
TΔS [5]: 13.4 kcal/mol
ΔG [5]: -10.2 kcal/mol
ΔH [5]: 3.3 kcal/mol
ΔHobs [6]: 3.9 kcal/mol
Kd [7]: 20 nM
TΔS [7]: 14.4 kcal/mol
ΔG [7]: -10.6 kcal/mol
ΔH [7]: 3.7 kcal/mol
Kd [8]: 1900 nM
TΔS [8]: 13 kcal/mol
ΔG [8]: -7.8 kcal/mol
ΔH [8]: 5.2 kcal/mol
Kd [9]: 40 nM
TΔS [9]: 13.4 kcal/mol
ΔG [9]: -10.2 kcal/mol
ΔH [9]: 3.3 kcal/mol

Molecule: CC[C@H](C)[C@H](NC(=O)[C@@H]1CCCN1C(=O)CNC(=O)[C@H](CC(N)=O)NC(=O)[C@@H]1CCCN1C(=O)[C@H](CO)NC(=O)[C@H](Cc1ccccc1)NC(=O)[C@H](CC(C)C)NC(=O)[C@H](Cc1ccc(O)cc1)NC(=O)[C@H](CC(N)=O)NC(=O)[C@@H](NC(=O)c1ccc(C2=c3cc4c(c(S(=O)(=O)O)c3Oc3c2cc2c(c3S(=O)(=O)O)NC(C)C2(C)C)=NC(C)C4(C)C)cc1)[C@@H](C)O)C(=O)N[C@@H](C)C(=O)N[C@@H](CCCNC(=N)N)C(=O)N[C@@H](C)C(=O)N[C@@H](Cc1c[nH]c2ccccc12)C(=O)O (stereo partly shown) [Alexa-532-TNYL-RAW] (X1-TNYLFSPNGPIARAW-OH; N-terminus and C-terminus assumed)
binding of the peptide in FP assay (EphB4 L95R): did not exhibit significant binding
reduction in binding affinity versus wild type (EphB4 T147F): 4-5 fold
reduction in binding affinity versus wild type (EphB4 K149Q): 4-5 fold
reduction in binding affinity versus wild type (EphB4 A186S): 4-5 fold

Molecule: human EphB4 (17-196) K149Q mutant (receptor)
assay window [10]: 12 fold
Kd [2]: 23 nM

Molecule: TNYL-RAW peptide
fold reduction of affinity against wild-type EphB4 [11]: 3 fold
fold reduction of affinity against wild-type EphB4 [12]: 500 fold
Kd [3]: 250 nM
TΔS [3]: -2.7 kcal/mol
ΔG [3]: -9 kcal/mol
ΔH [3]: -11.7 kcal/mol
Kd [5]: 71 nM
TΔS [5]: -4.9 kcal/mol
ΔG [5]: -9.8 kcal/mol
ΔH [5]: -14.7 kcal/mol
Kd [7]: 160 nM
TΔS [7]: -3.2 kcal/mol
ΔG [7]: -9.4 kcal/mol
ΔH [7]: -12.5 kcal/mol
Kd [9]: 71 nM
TΔS [9]: -4.9 kcal/mol
ΔG [9]: -9.8 kcal/mol
ΔH [9]: -14.7 kcal/mol
Ki [13]: 100 nM
Ki [14]: 170 nM
Kd [15]: 35900 nM
TΔS [15]: -5.8 kcal/mol
ΔG [15]: -6.1 kcal/mol
ΔH [15]: -12 kcal/mol

Molecule: human EphB4 (17-196) R148S mutant (receptor)
Kd [2]: 4.5 nM

Molecule: CC[C@H](C)[C@H](NC(=O)[C@@H]1CCCN1C(=O)CNC(=O)[C@H](CC(N)=O)NC(=O)[C@@H]1CCCN1C(=O)[C@H](CO)NC(=O)[C@H](Cc1ccccc1)NC(=O)[C@H](CC(C)C)NC(=O)[C@H](Cc1ccc(O)cc1)NC(=O)[C@H](CC(N)=O)NC(=O)[C@@H](N)[C@@H](C)O)C(=O)N[C@@H](C)C(=O)O [TNYL]
ΔH [1]: −9.6 ± 0.3 koal mol−1

Continued, values first:

Kd [2]: 21 nM
Molecule: human EphB4 (17-196) RKR148-150SQV mutant (receptor)

Kd [2]: 25 nM
Molecule: human EphB4 (17-196) T147F mutant (receptor)

assay window [10]: 6 fold
Kd [2]: 5 nM
Molecule: human EphB4 (17-196) ligand binding domain, wild type (receptor)

Kd [2]: 16 nM
Molecule: human EphB4 (17-196) A186S mutant (receptor)
